{"source": "patent US20160237160A1", "about": "“ANTI-TWEAKR ANTIBODIES AND USES THEREOF” (BAYER PHARMA AKTIENGESELLSCHAFT, priority 2013, published 2016)", "key": {"NCI-H322 cells": {"system": "NCI-H322 cells", "assay": "Caspase 3/7 activation", "assay_type": "cell-based, human", "details": "100 μg/ml antibody or *100 ng/ml TWEAK, 48 h, IFN gamma", "experimental": "(§1) To determine the level of apoptosis induction, Caspase-3/7 activation was measured after treatment of cancer cells with TWEAK or agonistic anti-TWEAKR antibodies. Therefore HT-29 cells were plated at a density of 4000 cells/75 μl/well in 96 well plates in assay medium (DMEM/Ham's F12, Biochrom #FG4815+10% FCS+100 ng/ml IFN gamma (R&D Systems #285-IF)). 24 h later cells were incubated with antibodies to the TWEAKR (see Table 24), recombinant human TWEAK (R&D, #1090-TW-025/CF, E. coli derived recombinant soluble human TWEAK, Arg93-His249 of accession # Q4ACW9, Entrez Gene ID 8742, with an N-terminal Met and 6-His tag) or corresponding isotype control IgG at various concentrations as indicated. After 24 h incubation with the antibodies, Caspase 3/7 activity was determined by adding 100 μl/well Caspase 3/7 Solution (Promega, #G8093) to the cells, incubation for one hour and reading of luminescence on a VICTOR V (Perkin Elmer).\n(§2) To determine whether the strong efficacy of the antibodies of the invention also holds true in other cell lines than HT-29, the capacity to induce Caspase 3/7 by anti-TWEAKR antibodies as compared to recombinant human TWEAK was evaluated in a panel of cell lines. For this analysis the following conditions were used: WiDr cells were plated at 3000 cells/well and incubated for 48 h in the presence of TWEAK or the described antibodies, A253 cells were plated at 2500 cells/well and incubated for 24 h, NCI-H322 cells were plated at 5000 cells/well and incubated for 48 h and 786-O cells were plated at 2500 cells/well and incubated for 48 h. The cells were plated in the media as described in Table 21, for A253, NCI-H322 and 786-O cells 100 ng/ml IFN gamma (R&D Systems #285-IF) was added. 24 h after plating antibodies at 100 μg/ml or TWEAK at 300 ng/ml (100 ng/ml TWEAK for NCI-H322 cells) were added and the cells were further incubated for the time periods indicated above. At the end of the incubation time Caspase 3/7 activity was determined as described for HT-29 cells. The fold induction of Caspase 3/7 was calculated as compared to untreated cells."}, "WiDr cells": {"system": "WiDr cells", "assay": "Caspase 3/7 activation", "assay_type": "cell-based, human", "details": "100 μg/ml antibody or 300 ng/ml TWEAK, 48 h", "experimental": "as §1, §2"}, "786-O cells [1]": {"system": "786-O cells", "assay": "Caspase 3/7 activation", "assay_type": "cell-based, human", "details": "100 μg/ml antibody or 300 ng/ml TWEAK, 48 h, IFN gamma", "experimental": "as §1, §2"}, "A253 cells [2]": {"system": "A253 cells", "assay": "Caspase 3/7 activation", "assay_type": "cell-based, human", "details": "100 μg/ml antibody or 300 ng/ml TWEAK, 24 h, IFN gamma", "experimental": "as §1, §2"}, "NCI-H1975 cells": {"system": "NCI-H1975 cells", "assay": "Inhibition of proliferation (Cell Titer Glo)", "assay_type": "cell-based, human", "details": "72h, 100 μg/ml antibody or *100 ng/ml TWEAK", "experimental": "(§3) Therefore cells were plated in 96well plates in 750 assay medium (growth media from Table 21, plus 100 ng/ml IFN gamma for 786-O cells) at the following cell numbers: WiDr cells 3000 cells/well, 786-O cells 2500 cells/well. 24 h later cells were incubated with anti-TWEAKR antibodies (see Table 26), recombinant human TWEAK or isotype control IgG (not shown) at the indicated concentrations (antibodies from 0.03-300 μg/ml, TWEAK 100 or 300 ng/ml). At the time of antibody addition cell viability was determined in sister plates (time point zero): therefore 750/well CTG solution (Promega Cell Titer Glo solution (catalog # G755B and G756B) was added to the cells, incubated for 10 minutes and luminescence was read on a Victor V (Perkin Elmer). 96 h after incubation with the agents, cell viability was determined in the assay plates by addition of 100 μl/well CTG solution, 10 min incubation and reading of luminescence. Proliferation in control wells was calculated by subtracting time zero values from the luminescence values in the untreated control wells. % of cell proliferation was calculated in the compound treated wells as compared to the untreated control wells.\n(§4) To evaluate, whether this strong anti-proliferative activity can also be observed in a broader cell panel, in addition LOVO, NCI-H1975, SW-480 (all 3000 cells/well), HT-29 (4000 cells/well), A253 and SK-OV3 (both 2500 cells/well) cells were incubated with 100 μg/ml anti-TWEAKR antibodies or TWEAK ligand for the time periods as indicated in Table 27. All cells were seeded in the growth media indicated in Table 21 and for all cells except for WiDr cells 100 ng/ml IFNgamma was added to the assay medium when seeding the cells. The percentage of growth inhibition for treated cells as compared to proliferation in untreated control cells was measured and calculated as described above. As shown in Table 27 the antibodies of the current invention are more efficacious as compared to other known antibodies in inhibiting proliferation of various cancer cell lines at 100 μg/ml. In most experiments the antibodies of the current invention also show equal or stronger efficacy as compared to 100-300 ng/ml TWEAK ligand. Thus, the antibodies described in this invention are unique in their activity to induce apoptosis and proliferation inhibition in a broad panel of cancer cell lines."}, "SW480 cells": {"system": "SW480 cells", "assay": "Inhibition of proliferation (Cell Titer Glo)", "assay_type": "cell-based, human", "details": "72h, 100 μg/ml antibody or *100 ng/ml TWEAK", "experimental": "as §3, §4"}, "HT-29 cells [3]": {"system": "HT-29 cells", "assay": "Inhibition of proliferation (Cell Titer Glo)", "assay_type": "cell-based, human", "details": "24h, 100 μg/ml antibody or **300 ng/ml TWEAK", "experimental": "as §3, §4"}, "786-O cells [4]": {"system": "786-O cells", "assay": "Inhibition of proliferation (Cell Titer Glo)", "assay_type": "cell-based, human", "details": "96h, 100 μg/ml antibody or *100 ng/ml TWEAK", "experimental": "as §3, §4"}, "Lovo cells": {"system": "Lovo cells", "assay": "Inhibition of proliferation (Cell Titer Glo)", "assay_type": "cell-based, human", "details": "72h, 100 μg/ml antibody or *100 ng/ml TWEAK", "experimental": "as §3, §4"}, "A253 cells [5]": {"system": "A253 cells", "assay": "Inhibition of proliferation (Cell Titer Glo)", "assay_type": "cell-based, human", "details": "72h, 100 μg/ml antibody or **300 ng/ml TWEAK", "experimental": "as §3, §4"}, "TWEAKR": {"biological_target": "TWEAKR (Homo sapiens, UniProt Q9NP84)", "details": "published data; read-out: KD / binding affinity to TWEAKR (published); cited from earlier work"}, "HT-29 cells [6]": {"system": "HT-29 cells", "assay": "Caspase 3/7 activation", "assay_type": "cell-based, human", "details": "100 μg/ml antibody or 300 ng/ml TWEAK, 24 h, IFN gamma", "experimental": "as §1"}}, "note": "Marks after values point to notes of the source that are not given here."}
{"molecule": "TWEAK: endogenous TWEAKR ligand; E. coli derived recombinant soluble human TWEAK, Arg93-His249 (R&D #1090-TW-025/CF) (protein, UniProt O43508 93-249, looked up, fragment) RSAPKGRKTRARRAIAAHYEVHPRPGQDGAQAGVDGTVSGWEEARINSSSPLRYNRQIGEFIVTRAGLYYLYCQVHFDEGKAVYLKLDLLVDGVLALRCLEEFSATAASSLGPQLRLCQVSGLLALRPGSSLRIRTLPWAHLKAAPFLTYFGLFQVH", "values": [{"measurement": "Fold induction of Caspase 3/7", "setting": "NCI-H322 cells", "result": "1.39 ± 0.01"}, {"measurement": "Fold induction of Caspase 3/7", "setting": "WiDr cells", "result": "1.22 ± 0.02"}, {"measurement": "Fold induction of Caspase 3/7", "setting": "786-O cells [1]", "result": "1.45 ± 0.05"}, {"measurement": "Fold induction of Caspase 3/7", "setting": "A253 cells [2]", "result": "1.53 ± 0.13"}, {"measurement": "% Inhibition of proliferation", "setting": "NCI-H1975 cells", "result": 56, "unit": "%*"}, {"measurement": "% Inhibition of proliferation", "setting": "SW480 cells", "result": 0, "unit": "%*"}, {"measurement": "% Inhibition of proliferation", "setting": "HT-29 cells [3]", "result": 98, "unit": "%**"}, {"measurement": "% Inhibition of proliferation", "setting": "786-O cells [4]", "result": 12, "unit": "%*"}, {"measurement": "% Inhibition of proliferation", "setting": "Lovo cells", "result": 53, "unit": "%*"}, {"measurement": "% Inhibition of proliferation", "setting": "A253 cells [5]", "result": ">100", "unit": "%**"}, {"measurement": "Kd", "setting": "TWEAKR", "result": "0.8 to 2.4", "unit": "nM"}, {"measurement": "Fold induction of Caspase 3/7", "setting": "HT-29 cells [6]", "result": "2.31 ± 0.29"}]}
